What was measured:
[1] = molecular target: protein PADI2 (UniProt Q9Y2J8); assay: sandwich ELISA, capture 197, dilution row A
[2] = molecular target: protein PADI4 (peptidylarginine deiminase 4) antigen (human) (UniProt Q9UM07); assay: sandwich ELISA, capture 197, dilution row A
[3] = molecular target: protein PADI2 (UniProt Q9Y2J8); assay: sandwich ELISA, capture 197, dilution row B
[4] = molecular target: protein PADI4 (peptidylarginine deiminase 4) antigen (human) (UniProt Q9UM07); assay: sandwich ELISA, capture 197, dilution row B
[5] = molecular target: protein PADI2 (UniProt Q9Y2J8); assay: sandwich ELISA, capture 197, dilution row C
[6] = molecular target: protein PADI4 (peptidylarginine deiminase 4) antigen (human) (UniProt Q9UM07); assay: sandwich ELISA, capture 197, dilution row C
[7] = molecular target: protein PADI2 (UniProt Q9Y2J8); assay: sandwich ELISA, capture 197, dilution row D
[8] = molecular target: protein PADI4 (peptidylarginine deiminase 4) antigen (human) (UniProt Q9UM07); assay: sandwich ELISA, capture 197, dilution row D
[9] = molecular target: protein PADI2 (UniProt Q9Y2J8); assay: sandwich ELISA, capture 197, dilution row E
[10] = molecular target: protein PADI4 (peptidylarginine deiminase 4) antigen (human) (UniProt Q9UM07); assay: sandwich ELISA, capture 197, dilution row E
[11] = molecular target: protein PADI2 (UniProt Q9Y2J8); assay: sandwich ELISA, capture 197, dilution row F
[12] = molecular target: protein PADI4 (peptidylarginine deiminase 4) antigen (human) (UniProt Q9UM07); assay: sandwich ELISA, capture 197, dilution row F
[13] = molecular target: protein PADI2 (UniProt Q9Y2J8); assay: sandwich ELISA, capture 197, dilution row G
[14] = molecular target: protein PADI4 (peptidylarginine deiminase 4) antigen (human) (UniProt Q9UM07); assay: sandwich ELISA, capture 197, dilution row G
[15] = molecular target: protein PADI2 (UniProt Q9Y2J8); assay: sandwich ELISA, capture 197, dilution row H (maybe blank)
[16] = molecular target: protein PADI4 (peptidylarginine deiminase 4) antigen (human) (UniProt Q9UM07); assay: as above

UniProt Q9Y2J8, sequence (Q9Y2J8 whole entry): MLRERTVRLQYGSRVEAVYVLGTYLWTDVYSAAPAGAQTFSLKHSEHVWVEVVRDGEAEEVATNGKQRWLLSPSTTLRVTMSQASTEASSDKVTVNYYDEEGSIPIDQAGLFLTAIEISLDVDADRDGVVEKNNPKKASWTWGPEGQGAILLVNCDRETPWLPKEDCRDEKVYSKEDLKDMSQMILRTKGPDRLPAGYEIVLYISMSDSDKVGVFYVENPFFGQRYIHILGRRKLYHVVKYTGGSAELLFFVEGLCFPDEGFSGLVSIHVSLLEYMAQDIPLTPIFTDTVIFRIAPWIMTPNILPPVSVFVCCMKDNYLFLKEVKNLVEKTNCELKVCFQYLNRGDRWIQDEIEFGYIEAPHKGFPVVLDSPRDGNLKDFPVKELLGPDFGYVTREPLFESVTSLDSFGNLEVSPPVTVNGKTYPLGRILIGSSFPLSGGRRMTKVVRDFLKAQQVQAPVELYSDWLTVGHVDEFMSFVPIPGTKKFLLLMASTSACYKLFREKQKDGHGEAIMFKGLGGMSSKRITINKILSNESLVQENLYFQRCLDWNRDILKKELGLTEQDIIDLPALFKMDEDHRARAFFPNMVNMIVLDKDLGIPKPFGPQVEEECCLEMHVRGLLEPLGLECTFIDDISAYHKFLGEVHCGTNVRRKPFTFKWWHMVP

OD [1]: 0.06 OD
OD [2]: 4.13 OD
OD [3]: 0.05 OD
OD [4]: 3.95 OD
OD [5]: 0.05 OD
OD [6]: 3.53 OD
OD [7]: 0.05 OD
OD [8]: 2.47 OD
OD [9]: 0.05 OD
OD [10]: 1.69 OD
OD [11]: 0.05 OD
OD [12]: 0.92 OD
OD [13]: 0.05 OD
OD [14]: 0.46 OD
OD [15]: 0.06 OD
OD [16]: 0.04 OD
B1: monoclonal antibody 135-B9 (antibody, human IgG1, kappa, V domains shown)
VH: EVKLQESGPGILQPSQTLSLTCSFSGFSLSTSGMCVGWIRQPSGKGLEWLAHIWWDDDKRYNPALKSRLTISKDTSSNQVFLKIASVDTADTATYYCARYYRFDEGFDYWGQGTTLTVSS
VL: DIVITQDELSNPVTLGTSASISCRSSKSLLHSDGITYLYWYLQKPGQSPQLLIYQMSNLASGVPDRFSSSGSGTDFTLRISRVEAEDVGVYYCAQNLELPLTFGAGTKLELKR
